Experimental findings from PMC2133042 are described below.

For assay [1], the target named is KKAA construct (myc-tagged ERGIC-53 with its cytoplasmic tail mutated to R2A6KKAA) (human).
Assay [2] deals with T1, KKFF (myc-tagged wild-type ERGIC-53) (human), P49257.
T1 chain: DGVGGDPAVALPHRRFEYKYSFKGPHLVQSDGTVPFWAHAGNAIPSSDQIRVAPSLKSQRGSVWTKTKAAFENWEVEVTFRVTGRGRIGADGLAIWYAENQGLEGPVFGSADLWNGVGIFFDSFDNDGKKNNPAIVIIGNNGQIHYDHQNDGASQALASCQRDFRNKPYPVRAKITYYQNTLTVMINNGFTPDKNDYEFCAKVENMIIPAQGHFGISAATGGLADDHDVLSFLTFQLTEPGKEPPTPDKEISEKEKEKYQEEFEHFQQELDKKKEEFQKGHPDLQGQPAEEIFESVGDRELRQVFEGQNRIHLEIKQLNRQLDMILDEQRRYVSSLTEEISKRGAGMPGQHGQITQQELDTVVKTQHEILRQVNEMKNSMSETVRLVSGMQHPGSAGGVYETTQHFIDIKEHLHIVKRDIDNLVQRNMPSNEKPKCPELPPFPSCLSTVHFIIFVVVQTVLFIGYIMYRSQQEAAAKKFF
The following applies: remark: other sources report otherwise.

“And” between values parts separate entries of the source, which are not always exact repeats. Equal entries are not always repeated.

The term stoichiometry N denotes the number of molecules, sites or subunits per partner or assembly.

Take “KKAA construct (myc-tagged ERGIC-53 with its cytoplasmic tail mutated to R2A6KKAA) (natural protein)”: in assay [1], the stoichiometry N was 2 and 6.

B1: KKFF (myc-tagged wild-type ERGIC-53), P49257 31-510 (natural protein)
chain: T1 chain
For B1, the stoichiometry N in assay [2] was 2 and 6.
